Tests used:
[1] = ITC-based assay, binding to LPS
[2] = test system: pigs with dermatome wounds; assay: Pig dermatome wound healing model; assay type: in vivo; conditions: dermatome wounds 40×40 mm at a depth of 0.76 mm, topical treatment
Procedure: In a first assessment in a pig model setting, using a dermatome, six wounds were made on each pig with three on the left side and three on the right side of each pig covering a surface area of 40×40 mm at a depth of 0.76 mm. […] For each pig, the wounds on the left of the animal were treated while the wounds on the right wide were left as untreated controls. […] Standard of care was advised on by veterinarians with experience in dealing with wound management in a farm setting.

[3] = test system: Staphylococcus epidermidis; assay: Biofilm formation, crystal violet assay; assay type: cell-based; conditions: 24 hours of growth
Enterobacter cloacae = assay: Biofilm formation, crystal violet assay; assay type: cell-based; conditions: 24 hours of growth
[4] = DSC iron binding capability with excess FeCl3; conditions: FeCl3 added in 1000× molar excess
Procedure: The DSC assay was further used to assess Lactoferrin bioactivity, specifically the iron binding capability of the API-E2 Lactoferrin. Iron chloride (FeCl3) was added in 1000× molar excess to API-E2 Lactoferrin. In the presence of excess iron, the API-E2 lactoferrin will bind the iron to its open iron binding site.

Candida albicans = assay: Biofilm formation, crystal violet assay; assay type: cell-based; conditions: 24 hours of growth
[5] = test system: Staphylococcus epidermidis; assay: Planktonic growth in culture, OD600; assay type: cell-based; conditions: 10-fold serial dilution of Lf, 18 hours

B1: Lactea-Lf: bovine lactoferrin purified from raw untreated milk by cation exchange chromatography and filtration according to Example 1 (protein)
chain: APRKNVRWCTISQPEWFKCRRWQWRMKKLGAPSITCVRRAFALECIRAIAEKKADAVTLDGGMVFEAGRDPYKLRPVAAEIYGTKESPQTHYYAVAVVKKGSNFQLDQLQGRKSCHTGLGRSAGWVIPMGILRPYLSWTESLEPLQGAVAKFFSASCVPCIDRQAYPNLCQLCKGEGENQCACSSREPYFGYSGAFKCLQDGAGDVAFVKETTVFENLPEKADRDQYELLCLNNSRAPVDAFKECHLAQVPSHAVVARSVDGKEDLIWKLLSKAQEKFGKNKSRSFQLFGSPPGQRDLLFKDSALGFLRIPSKVDSALYLGSRYLTTLKNLRETAEEVKARYTRVVWCAVGPEEQKKCQQWSQQSGQNVTCATASTTDDCIVLVLKGEADALNLDGGYIYTAGKCGLVPVLAENRKTSKYSSLDCVLRPTEGYLAVAVVKKANEGLTWNSLKDKKSCHTAVDRTAGWNIPMGLIVNQTGSCAFDEFFSQSCAPGRDPKSRLCALCAGDDQGLDKCVPNSKEKYYGYTGAFRCLAEDVGDVAFVKNDTVWENTNGESTADWAKNLNREDFRLLCLDGTRKPVTEAQSCHLAVAPNHAVVSRSDRAAHVKQVLLHQQALFGKNGKNCPDKFCLFKSETKNLLFNDNTECLAKLGGRPTYEEYLGTEYVTAIANLKKCSTSPLLEACAFLTR
[1]
  binding to LPS: binds to LPS
  competition of LPS binding with HS binding: competitive with HS binding
[2]
  wound healing: healing occurred within one day
[3]
  Inhibition of Biofilm Formation: Strong (Lf was deemed to have a strong activity if biofilms were eliminated or significantly reduced to less than 90% less than no treatment at concentrations of 10 mg/mL or less after 24 hours of growth)
Enterobacter cloacae
  Inhibition of Biofilm Formation: Strong (Lf was deemed to have a strong activity if biofilms were eliminated or significantly reduced to less than 90% less than no treatment at concentrations of 10 mg/mL or less after 24 hours of growth)
[4]
  available Apolactoferrin shifted to the Hololactoferrin form: 100%
Candida albicans
  Inhibition of Biofilm Formation: Strong (Lf was deemed to have a strong activity if biofilms were eliminated or significantly reduced to less than 90% less than no treatment at concentrations of 10 mg/mL or less after 24 hours of growth)
[5]
  Inhibition of Planktonic Growth: None

Reference: US20260000736A1, “PURIFIED LACTOFERRIN COMPOSITIONS AND METHODS OF USE” (Lactea Therapeutics LLC, priority 2023, published 2026)
